Results reported in the supplement of paper PMC9170038.

Test system: K4 kissing-loop RNA reporter
Experiment: apparent KD of K4 kissing-loop reporter; higher = weaker reporter binding
Details: Eterna round: R107
Experimental: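 RNA-MaP round R107: designed RNA switches with theophylline, tryptophan, arginine or FMN aptamers are transcribed on-chip within common flanks. They are titrated with a labelled K4 kissing-loop RNA reporter in RNA-MaP buffer (100 mM Tris pH 7.5, 80 mM KCl, 4 mM MgCl2), without ligand or with the indicated ligand. Median apparent KD per design.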

[1] = input ligand: theophylline 20 uM
[2] = input ligand: tryptophan 2.4 mM
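Note: bound reporter read as fluorescence of individual clusters on recovered sequencing chips by microscopy, with normalized cluster intensities fitted with a binding model.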

Sequence | apparent KD of K4 kissing-loop reporter (input ligand: FMN 200 uM) | apparent KD of K4 kissing-loop reporter (input ligand: arginine 13.2 mM) | apparent KD of K4 kissing-loop reporter (input ligand: none) | apparent KD of K4 kissing-loop reporter [1] | apparent KD of K4 kissing-loop reporter [2]
GAAAGAAAGUAUGAUACCAGACACCCGAGUGAUGUUCGGAGCAGAGUGAUGUUCUUUUAAGUCCCUUGGCAGCAUAAAAGAAAAG [whbob_SS_Theo_B_sa83] | 192 nM | 219 nM | 238 nM | 294 nM | 166 nM
GGAGGAGAAUAUGAUACCAGCAGAGAGAGAGAGGAAGUAUAGUGAUGUUAUAUGUGAGAAUGCCCUUGGCAGCAUAAGAAGAAGG [whbob_SS_Theo_B_sa87] | 140 nM | 147 nM | 156 nM | 170 nM | 132 nM
AAAAUAAACCAGUGAUGUUGGUGUCCAGAUACCAGCGAUAAAAUUCGCCCUUGGCAGCUGUGGACGUACAAAAUAAGUACGUCCU [MatMod 3 - Jieux - Same State - Theophylline A] | 734 nM | 555 nM | 837 nM | 525 nM | 674 nM
UGACUGGAUGGAAGGAGCGCUAAACUCCUAGUGAUGUUAGGGAAAUGAGGCAAAGCCUCGAGGCAGGUAGGUCGCCAUCUAGUCU [FiskerMod 18 - Jieux - Same State - Arginine B] | 160 nM | 121 nM | 155 nM | 148 nM | 144 nM
UUUUUAUGCAGUGAUGUUGCUAAUAUAACAGAGGAUAUGCAUUAAUGCAGAAGGCUGAAAUACUAUACUUUAAUAAAUUAAAUUU [JR_SSFMNA_Sub014] | 89.9 nM | 109 nM | 85.5 nM | 134 nM | 85 nM
AGGGCACUGGCGGCCGCCACUUUUCGUGCGAACCAAAGCUAGUGAUGUUGGCUCCCUAGUUGCAAAAGGACCGGGCCGUUCAUCU [theeternabot_sameState_KL_Trp_B_37] | 315 nM | 195 nM | 302 nM | 296 nM | 211 nM
CCGAAGAACCAGUGAUGUUGGUUGACUAGACAGGAUAUGAGCAACAUCAGAAGGGUCUGGCUUCGGGAGUGGGUUGCGCUGACCU [Onbizaes] | 283 nM | 259 nM | 616 nM | 296 nM | 576 nM
UAGGAGUGAUGUUCCAUAUGUAAGGCCGAAGGAGCGGCAUUAUAGCCAGGUAGGUCGCGGCAGUACGUACCAGUGAUGUUGGAAA [KL-SSArg-A5] | 173 nM | 94.9 nM | 150 nM | 119 nM | 116 nM
GCAUGGAUCGCAGGAUAUAGAUCCGUGAGUGAAUUCUUGCCAGUGAGGAGUGAUGUUCCUCAUGGGCUAGAAGGGCGAUCCAUGC | 140 nM | 80.8 nM | 89.4 nM | 85.9 nM | 83.5 nM
AAAGACUGACUGCAAUUAGCAGUCAGUCAACGAGGACCGGUACGGCCGCCACUCGGGUCCUAGAGUGAUGUUCUAAUAAUAUAAA [AK1.2 SS Tryptophan A] | 374 nM | 495 nM | 319 nM | 490 nM | 207 nM
AUUCCCACUUAAGGAUAUCAAGGAGUGAUGUUCCAAAUGGUCCACGUCGCGGCUCUCCGGGCACAAUGAGAAGGUAAAGCUGGGU [theeternabot_exclusion_KL_FMN_B_43] | 278 nM | 275 nM | 276 nM | 370 nM | 210 nM
AAGGGCGGAACAACCUCGCCGGAUAGAGAUACCAGCCCAGCAAUGGGCCCUUGGCAGCUCACUGACCUCAGUGAUGUUGAGGUUC [Laar] | 243 nM | 220 nM | 248 nM | 188 nM | 232 nM
UGAUAGGACAGAAGGAGCGGUAGUGAUGUUGCCAAAAGUAUAAGGUGUCAAAAGACACCCUACCAGGUAGGUCGCUGUCCUAUCU | 319 nM | 346 nM | 354 nM | 541 nM | 340 nM
CCAUUCUGUUACGAUACCAGUCUAAUAUAUUUGAUCAAUACCCUCGCCGAGUGAUGUUCGGACCCUUGGCAGCGUCUGGGACAGG [bbybmullin] | 453 nM | 377 nM | 410 nM | 440 nM | 364 nM
GCAGUGAUGUUGCACGAGUAGGCUAGAGUACGAGGACCGGUACGGCCGCCACUCGUACGGAAGUCGCUAAUUUAUGGAAUGGUGA [#05 K4 Tryptophan A Same State] | 713 nM | 473 nM | 548 nM | 455 nM | 435 nM
CAUAGACAAGUGAUGUUUGUCAUAACCGAAGGAGCGUCUUUAAAGACAGGUAGGUCGCGGAUUAAUUAAGUUAUUAUUCUUUUUA [JR_SSArginiA_Sub018] | 552 nM | 494 nM | 644 nM | 573 nM | 439 nM
AGCAAUAUCACGGCCGCCACUGAAUAUUGUUUUUAUAUUUAGAAAUCUUGCCAGUGAUGUUGGUUCAGGACCGGGUGAGUUAAUA [JR_SSTryptoB_Sub005] | 435 nM | 430 nM | 466 nM | 450 nM | 401 nM
AUAAUAUGAGUGAUGUUCAUGAAACCUGAAGGAGCGGACGAAAGUCCAGGUAGGUCGCAGGACUCCUUCAACAUGGGAGAGGGAG [KL-SSArg-A8 #analogue] | 153 nM | 180 nM | 166 nM | 194 nM | 150 nM
CGAGAAAGAGCGACUGGCGAUCUGUCUGAAGGAGCGGGUGCUAGCCCAGGUAGGUCGCAGACUUUGACGCCAGUGAUGUUGGCGG [Titidiisxe] | 210 nM | 175 nM | 222 nM | 134 nM | 178 nM
GGCCGCAAGGCGAGCGCUCCCACUCCGGAAGGAGCGCCCGGAAGGGCAGGUAGGUCGCCGGAGUGAUGUUCCGGUGGAGGGCUCG [#2 Exclusion - Arginine A Attempt #18 (Inspired by Omei)] | 435 nM | 319 nM | 417 nM | 772 nM | 469 nM
CGCCAGGGUGAAGGAUAUCCGUCUGAUUGAGCGCAGUGAUGUUGCGCGAUUCGUUCAUCGCUCGGAGGAGAAGGUCAGAUAACUC [theeternabot_sameState_KL_FMN_B_3] | 127 nM | 121 nM | 121 nM | 121 nM | 112 nM

Sequence | apparent KD of K4 kissing-loop reporter (input ligand: FMN 200 uM) | apparent KD of K4 kissing-loop reporter (input ligand: arginine 13.2 mM) | apparent KD of K4 kissing-loop reporter (input ligand: none) | apparent KD of K4 kissing-loop reporter [1] | apparent KD of K4 kissing-loop reporter [2]
AAAGGAUCAGAGAGUGAUGUUCUCUAAUAACGAGGACCGGUACGGCCGCCACUCGAAUAGAUCCAAGUCCUACGAAAAGUAGGAC [Omei inspired 8] | 274 nM | 217 nM | 316 nM | 308 nM | 210 nM
UCCACGCUUCGAGGAUAUCGGAUUAGAGUGAUGUUCUAAAGACGCCCAGUGAUGUUGGAUGCGAUACGAGAAGGCGGUGGCGUGU [Same State FMN B GF6] | 236 nM | 195 nM | 244 nM | 140 nM | 176 nM
UACUUAUAUUUCAACUUAAAUUAUUCAGAAGGAGCGUGAUCAUUCACAGGUAGGUCGCUGAACUAGUGAUGUUAGUUUUAAUUUU [JR_Nu_ExcArginiA_Sub022] | 66.3 nM | 127 nM | 76.5 nM | 116 nM | 62.2 nM
GGAGAGGUCUUGUUUGGAUGUGUUUAAUGGCGAGGACCGGUACGGCCGCCACUCGGGUGAUGUUAGUGAUGUUGAUGUAGUGAUG [wzwmullin] | 103 nM | 76.1 nM | 93.4 nM | 149 nM | 89.5 nM
CGCAGUGAUGUUGUGAUUAACUACAGGGAAGGAGCGUGCUAGAGCACAGGUAGGUCGCCCAGUGGCCGAGUGAUGUUCGGCGGGU [Same State Arginine A GF 27] | 237 nM | 189 nM | 227 nM | 250 nM | 188 nM
UAUUAAUUGUCAGGAUAUCGAAAUCGAGUGAUGUUCGUAAAUUAAUUAUUAUUAAUAAUAUUUAAACGAGAAGGGACAUUAUUUA [JR_SSFMNB_Sub001] | 235 nM | 558 nM | 694 nM | 647 nM | 442 nM
GUAUCGCUAGGAGGAUAUUUCAUAUAAUAUAUAAAUGGAUAUACGGAGUGAUGUUCCGAUUUACGGAAAGAAGGCCUAGUGAUAC [FMN B 18] | 134 nM | 183 nM | 214 nM | 229 nM | 202 nM
AAACUCAGUGAUGUUGAGUGGGAGCGGGAUACCAGAUCGCCCAUCAUCCCUUGGCAGCCCGAGCGUCAGAAUACAUUUCAUUUGC [theeternabot_sameState_KL_Theo_A_6] | 339 nM | 349 nM | 349 nM | 385 nM | 263 nM
CCAAUCUGUUACGAUACCAGUCAAAGAUAUUUUAUCAAUGCCCUCACCGAGUGAUGUUCGGACCCUUGGCAGCGUCUGGGAUAGG [ddfcmullin] | 165 nM | 142 nM | 186 nM | 165 nM | 149 nM
AGGAGCGUGCGAUGCAAAUCGCACGCUCCUCGAGGACCGGUACGGCCGCCACUCGCUCGCGCCGAGUGAUGUUCGGCCGGCGAAC [#2 Same State - Tryptophan A Attempt #10 (HarryS)] | 266 nM | 236 nM | 265 nM | 289 nM | 452 nM
CGUACGGUUUCUUUCUUUCCGUACGAGUGCCGAGGACCGGUACGGCCGCCACUCGCUACAGCCUAGUGAUGUUAGGCGAUUCUUU | 129 nM | 117 nM | 125 nM | 163 nM | 102 nM
UGAUACCAGACUGAUACCAGCAAGUGAUGUUUGUUGAUCAAAAGCAGUCAAAGACUGCUUUGCCCUUGGCAGCAGUCUGGUAUCU [#10 K4 Theophylline B Exclusion] | 167 nM | 148 nM | 166 nM | 276 nM | 141 nM
CGCCGUAAGGCGAGCGCUCCCACUCCGGAAGGAGCGCCCGAAAGGGCAGGUAGGUCGCCGGAGUGAUGUUCCGGUGGAGGGCUCG [#2 Exclusion - Arginine A Attempt #28 (Inspired by Omei)] | 353 nM | 261 nM | 380 nM | 267 nM | 330 nM
UUUUGGUACUGAGGAUAUUCGACGAAAUAUAGUGAUGUUAUAUAAGGAGGAGGAGGGUGGGAGGAAGGAGAAGGCAGAAGAGGAG [#06 K4 FMN B Exclusion] | 285 nM | 179 nM | 238 nM | 285 nM | 185 nM
UGUCAUUGGUCGGCCGCCACUUGAAGGUCAAAGACCAUAGAGUGAUGUUCUAAGACGAAAGUCACAAGGACCGGGACCGAUGACU [TrypBS 3 #SwitchBubble #K4Middle] | 361 nM | 134 nM | 133 nM | 265 nM | 607 nM
UGAUACCAGACGGCCGCCACUCCCGCAGGUCAAAGACCUGCGAAGCUGGUUCUUCAGUGAUGUUGGAGGACCGGGUCUGGUAUCU [FiskerMod 24 - Jieux - Exclusion - Tryptophan B] | 306 nM | 230 nM | 266 nM | 263 nM | 504 nM
AGGCACGAGCAAGGAUAUUGAGUAGAGUGAUGUUCUGCCUGGGUUGGCUCGAAAGAGCCUUCUCAGCGAGAAGGUGCUCGUGCCU [#2 Same State - FMN A Attempt #22 (HarryS)] | 290 nM | 603 nM | 616 nM | 367 nM | 719 nM
AAUAAUAUACAAAGGCGAACGAAUAGGGAAGGAGCGCGAUAUAACGCAGGUAGGUCGCCCAUAUUUUUAGUGAUGUUAGAGAAUA [E. Arginine A Tesla 1] | 938 nM | 762 nM | 766 nM | 920 nM | 757 nM
GGUAGCAUGGCGGCCGCCACUUACACCACGGCCCUUCUAGUGAUGUUAGAGUGGAUUAUUCCGUUAAGGACCGGGCCAUGCUACC | 629 nM | 430 nM | 745 nM | 650 nM | 273 nM
UCGAUCGCUAGUGAUGUUGGUGUGCUACAUCGAGGACCGGUACGGCCGCCACUCGAGCCCGAGUAGAAGGGUGGGCUGCUAUGAA [theeternabot_sameState_KL_Trp_A_18] | 1510 nM | 1030 nM | 1190 nM | 743 nM | 895 nM
UUUUAUUCGUACUUCUAGUGAUGUUAGAUUCGAGGACCGGUACGGCCGCCACUCGUUAAGGCGAUUUUAUAUUUUUUAUUCUUUA [JR_SSTryptoA_Sub012] | 182 nM | 165 nM | 179 nM | 165 nM | 138 nM
